± gives the standard deviation of the averaged measurements.
Tested on: ATP
Experiment: switch fluorescence ratio, 500 uM ATP over buffer (Cy3 cluster intensity, sum of 5 cycles each) (fold (ratio)); higher = stronger signal-on switching upon ATP binding; sequences stand for … in TCGTCGGCAGCGTCAGATGTGTATAAGAGACAGTTTTTTTTTTTTTTTTTTTTTTTTT…TC
Conditions: aptamer strand: ATP DNA aptamer (quencher-CACCTGGGGGAGTATTGCGGAGGAAGG + anchor), 100 nM annealed; ATP concentration: 500 uM
Procedure, shortened: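 Between each of five buffer/ATP cycles, the flow-cell was stripped with NaOH and re-annealed. Each cycle imaged Cy3-labelled switching-strand clusters, annealed to 100 nM quencher-labelled ATP aptamer on a modified Illumina MiSeq flow-cell, first in selection buffer and then after 15 min with 500 uM ATP at 22 °C. The fluorescence ratio is summed target-cycle over summed buffer-cycle Cy3 intensity per cluster, averaged per switch-domain sequence, with clusters outside 100-1000 RFU excluded.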
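Note: ATP exposure 15 min at 22 °C before imaging.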

Sequence	switch fluorescence ratio
CAGGTCTTAA	0.9719 ± 0.0054
CAGGTGACGC	1.07 ± 0.014
CAGGTGGGGC	1.02 ± 0.035
CAGGTGGGTC	1.02 ± 0.018
CAGGTTAATG	1.0027 ± 0.00049
CAGGTTGATG	1.01 ± 0.032
CAGGTTGCCT	0.999 ± 0.046
CAGGTTGGGG	1.03 ± 0.054
CAGGTTGTGG	0.992 ± 0.024
CAGGTTTTTT	0.989 ± 0.019
CAGTAATATT	1.06 ± 0.017
CAGTAGAGGG	0.977 ± 0.028
CAGTAGCGG	1.14 ± 0.018
CAGTAGGGTC	0.997 ± 0.014
CAGTAGGTCT	1.01 ± 0.027
CAGTAGTTTT	1 ± 0.017
CAGTATATTG	0.995 ± 0.025
CAGTATTTCC	1.05 ± 0.043
CAGTCAGGGC	1.26 ± 0.21
CAGTCATATT	1.02 ± 0.034
CAGTCGAGTT	1.003 ± 0.0076
CAGTCGGTCA	1.01 ± 0.032
CAGTCGGTGG	1 ± 0.031
CAGTCGTGGA	0.969 ± 0.016
CAGTCTATCA	0.972 ± 0.029

Sequence	switch fluorescence ratio
CAGTCTATCG	1.01 ± 0.021
CAGTCTGCAG	0.991 ± 0.031
CAGTCTGGTG	1.01 ± 0.025
CAGTGAATGA	1.03 ± 0.017
CAGTGAGATG	1.03 ± 0.019
CAGTGAGCTC	0.981 ± 0.022
CAGTGAGGTT	1.02 ± 0.031
CAGTGCCAGC	0.999 ± 0.035
CAGTGTGAAG	0.958 ± 0.016
CAGTGTGGTC	0.979 ± 0.055
CAGTTACGAC	1.13 ± 0.055
CAGTTAGTGT	1.001 ± 0.00021
CAGTTATGCC	0.988 ± 0.077
CAGTTCCATG	0.9857 ± 0.0091
CAGTTCGGGA	0.989 ± 0.02
CAGTTGGATT	1.01 ± 0.04
CAGTTGGTC	0.995 ± 0.037
CAGTTTCAGG	0.966 ± 0.043
CAGTTTCCTC	1.08 ± 0.015
CAGTTTGACC	0.987 ± 0.048
CAGTTTTCCC	1.01 ± 0.016
CAGTTTTCTT	1.01 ± 0.062
CAGTTTTTTC	1.005 ± 0.0054
CATAACGTTA	1.032 ± 0.0071
CATAAGGTAT	0.999 ± 0.046

Sequence	switch fluorescence ratio
CATAATCCGA	1.048 ± 0.0029
CATAATCCGG	0.9679 ± 0.0022
CATAATGGTC	0.986 ± 0.041
CATAATTGGG	0.995 ± 0.028
CATAATTGTA	0.979 ± 0.019
CATACAATAT	1.109 ± 0.0014
CATACTTTGG	1.01 ± 0.016
CATAGGCTAC	1.6 ± 0.031
CATAGGGCTT	0.963 ± 0.025
CATAGGTTCT	0.986 ± 0.023
CATAGGTTGC	0.983 ± 0.041
CATAGTGATC	1.051 ± 0.0011
CATATAAACT	1.039 ± 0.0047
CATATATGTC	1 ± 0.056
CATATCTAGG	0.997 ± 0.025
CATATCTGAC	1.16 ± 0.056
CATATCTGAT	1.01 ± 0.041
CATATCTGTT	1.02 ± 0.024
CATATGCGTC	1.02 ± 0.035
CATATGCTGC	1.0589 ± 0.00039
CATATGTTAG	1 ± 0.038
CATATTCGCT	1.01 ± 0.016
CATATTTCCA	0.99 ± 0.02
CATATTTCGG	0.995 ± 0.03
CATATTTT	0.971 ± 0.047

Sequence	switch fluorescence ratio
CATATTTTTA	1.04 ± 0.05
CATCAGGCAC	1.2 ± 0.023
CATCATCTTG	1 ± 0.062
CATCATGTAC	1.33 ± 0.059
CATCCGAGGT	1.14 ± 0.23
CATCCGTGGG	1.75 ± 0.085
CATCCTTTAA	1.007 ± 0.0082
CATCGATTGT	1 ± 0.019
CATCGCGGAC	3.88 ± 0.45
CATCGGATAT	1.04 ± 0.052
CATCGGCAAG	5.75 ± 1.3
CATCGTATGG	0.954 ± 0.022
CATCTCAGTG	1.03 ± 0.015
CATCTGGCTT	1.0536 ± 0.00031
CATCTGTGCG	1.02 ± 0.016
CATGAAGGGG	1.02 ± 0.015
CATGAATGGA	1.01 ± 0.017
CATGACTAGA	0.981 ± 0.014
CATGAGAGGT	1 ± 0.018
CATGAGATAC	1.16 ± 0.022
CATGAGATTG	0.971 ± 0.029
CATGAGGGAG	0.996 ± 0.019
CATGAGTAAG	1 ± 0.015
CATGAGTATT	0.954 ± 0.033
CATGATGTTG	0.975 ± 0.026

Sequence	switch fluorescence ratio
CATGCAGCAT	1.11 ± 0.02
CATGCCGCAT	1.133 ± 0.0092
CATGCTAAGT	0.997 ± 0.011
CATGCTGGG	0.992 ± 0.04
CATGCTTGGC	1.01 ± 0.055
CATGCTTTGT	0.9924 ± 0.0069
CATGGAGGTC	1.03 ± 0.026
CATGGAGTGT	1.01 ± 0.026
CATGGATACG	1.01 ± 0.021
CATGGGAGAG	1.05 ± 0.026
CATGGGAGCT	1.01 ± 0.043
CATGGGGCCT	0.9984 ± 0.0027
CATGGGGGAG	0.978 ± 0.035
CATGGGGGTA	0.982 ± 0.026
CATGGGTGCG	1.02 ± 0.014
CATGGTATTA	1.01 ± 0.044
CATGGTCATG	1 ± 0.017
CATGGTGTGT	1.01 ± 0.011
CATGTAAGGC	1.03 ± 0.021
CATGTATTGG	0.991 ± 0.021
CATGTCATTG	1.01 ± 0.015
CATGTCCAGG	1.46 ± 0.059
CATGTCGAGC	1.02 ± 0.059
CATGTCGTTT	1 ± 0.017
CATGTGCACC	1.014 ± 0.0092

Sequence	switch fluorescence ratio
CATGTGTAAT	1.009 ± 0.0086
CATGTTCTTT	0.999 ± 0.026
CATGTTGAAG	0.986 ± 0.077
CATGTTTGCT	0.961 ± 0.02
CATGTTTTGC	1.01 ± 0.065
CATTAATGGG	1.01 ± 0.019
CATTACCGGA	1.012 ± 0.0098
CATTAGCAGG	1.08 ± 0.032
CATTAGCCAG	0.99754 ± 0.00029
CATTAGGGCT	0.978 ± 0.015
CATTATGATG	1.01 ± 0.013
CATTCACATT	1.05 ± 0.034
CATTCAGTTT	0.949 ± 0.021
CATTCCGAGA	1.4 ± 0.024
CATTCCGGGA	1.63 ± 0.72
CATTCTACTG	1.04 ± 0.021
CATTCTGACC	1.08 ± 0.036
CATTCTGCGC	1.16 ± 0.05
CATTGACATT	1.06 ± 0.026
CATTGAGGTT	0.979 ± 0.02
CATTGATGTG	1 ± 0.011
CATTGGCCGG	1.095 ± 0.0025
CATTGGTAGT	0.977 ± 0.035
CATTGGTTGT	0.927 ± 0.025
CATTGTGTAT	0.975 ± 0.029

Sequence	switch fluorescence ratio
CATTTAAAG	1.01 ± 0.031
CATTTAACGT	0.991 ± 0.0041
CATTTAGAGG	1.007 ± 0.0073
CATTTAGTGT	0.984 ± 0.012
CATTTAGTTG	0.985 ± 0.042
CATTTATATG	1.02 ± 0.026
CATTTATGCG	0.989 ± 0.018
CATTTCAGAG	1.003 ± 0.0062
CATTTCAGG	1.05 ± 0.033
CATTTCGTTT	0.957 ± 0.014
CATTTGAATT	0.973 ± 0.033
CATTTGCGGA	0.981 ± 0.055
CATTTGTGGA	1.003 ± 0.0062
CATTTGTGGT	1.02 ± 0.014
CATTTTTATC	0.992 ± 0.012
CATTTTTGTA	0.986 ± 0.012
CCAAAAGGCT	1.08 ± 0.044
CCAAATGAAT	1.03 ± 0.025
CCAAATTGGG	1.016 ± 0.0048
CCAACAGGTT	1.69 ± 0.079
CCAACCTGAT	1.31 ± 0.18
CCAACTTTTC	1.0433 ± 0.00094
CCAAGCATAG	3.63 ± 0.47
CCAAGCATCG	1.197 ± 0.0062
CCAAGTAGTA	1.03 ± 0.032

Sequence	switch fluorescence ratio
CCAAGTGTGC	1.26 ± 0.17
CCAAGTTCTC	0.972 ± 0.021
CCAATAGTTC	1.08 ± 0.022
CCAATGACGT	0.979 ± 0.039
CCAATGTATG	0.998 ± 0.044
CCAATTATGT	1.01 ± 0.025
CCAATTTGGG	0.964 ± 0.029
CCACAATCAG	1.274 ± 0.012
CCACACGTTT	1.13 ± 0.076
CCACAGAGGG	1.21 ± 0.17
CCACATCCAT	1.044 ± 0.01
CCACCATATT	1.07 ± 0.039
CCACCGGGGC	2.3 ± 0.12
CCACGCCAGA	1.28 ± 0.052
CCACTAGACC	1.14 ± 0.026
CCACTTTGGG	1 ± 0.069
CCAGAACTTA	1.03 ± 0.026
CCAGAGGGTT	1.03 ± 0.031
CCAGATATCA	0.999 ± 0.054
CCAGCAGGTA	1.13 ± 0.064
CCAGCGCACG	1.541 ± 0.014
CCAGGAAACG	0.99 ± 0.072
CCAGGCACTG	1.03 ± 0.021
CCAGGCGGGG	0.9969 ± 0.0046
CCAGGCTATG	1.012 ± 0.0047

From the supplement of paper PMC10126150
